Data reported in patent US7070972 (US Dept. of Health and Human Services, dated 2006).
One block for each binder: values may come before it.

Legend:
JAK-1 = target: T1, JAK-1 (UniProt P23458 1-1154, limits assumed); assay: anti-Tac immunoprecipitation, JAK-1 Western blot, COS-7 cotransfectants
T1 construct: whole, on cells; Tested in cell lysates

[1] = target: T2, common γ chain of the IL-2 receptor, wild type (UniProt P31785 23-369, limits assumed); assay: co-immunoprecipitation from YT cell lysates with R878, JAK-3 Western blot
T2 construct: whole, on cells; Tested in cell lysates; also called wild type γc
T2 sequence (looked up): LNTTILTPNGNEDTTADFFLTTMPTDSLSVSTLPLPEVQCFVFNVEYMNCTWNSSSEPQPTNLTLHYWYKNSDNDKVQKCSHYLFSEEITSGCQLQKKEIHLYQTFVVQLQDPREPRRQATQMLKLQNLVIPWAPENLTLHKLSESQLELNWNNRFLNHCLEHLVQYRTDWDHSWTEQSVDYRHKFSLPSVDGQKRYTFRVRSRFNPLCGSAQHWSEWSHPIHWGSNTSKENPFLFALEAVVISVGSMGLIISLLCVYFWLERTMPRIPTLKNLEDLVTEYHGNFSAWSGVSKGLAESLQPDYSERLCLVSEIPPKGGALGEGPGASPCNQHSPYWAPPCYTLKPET

T1 sequence (P23458 whole entry): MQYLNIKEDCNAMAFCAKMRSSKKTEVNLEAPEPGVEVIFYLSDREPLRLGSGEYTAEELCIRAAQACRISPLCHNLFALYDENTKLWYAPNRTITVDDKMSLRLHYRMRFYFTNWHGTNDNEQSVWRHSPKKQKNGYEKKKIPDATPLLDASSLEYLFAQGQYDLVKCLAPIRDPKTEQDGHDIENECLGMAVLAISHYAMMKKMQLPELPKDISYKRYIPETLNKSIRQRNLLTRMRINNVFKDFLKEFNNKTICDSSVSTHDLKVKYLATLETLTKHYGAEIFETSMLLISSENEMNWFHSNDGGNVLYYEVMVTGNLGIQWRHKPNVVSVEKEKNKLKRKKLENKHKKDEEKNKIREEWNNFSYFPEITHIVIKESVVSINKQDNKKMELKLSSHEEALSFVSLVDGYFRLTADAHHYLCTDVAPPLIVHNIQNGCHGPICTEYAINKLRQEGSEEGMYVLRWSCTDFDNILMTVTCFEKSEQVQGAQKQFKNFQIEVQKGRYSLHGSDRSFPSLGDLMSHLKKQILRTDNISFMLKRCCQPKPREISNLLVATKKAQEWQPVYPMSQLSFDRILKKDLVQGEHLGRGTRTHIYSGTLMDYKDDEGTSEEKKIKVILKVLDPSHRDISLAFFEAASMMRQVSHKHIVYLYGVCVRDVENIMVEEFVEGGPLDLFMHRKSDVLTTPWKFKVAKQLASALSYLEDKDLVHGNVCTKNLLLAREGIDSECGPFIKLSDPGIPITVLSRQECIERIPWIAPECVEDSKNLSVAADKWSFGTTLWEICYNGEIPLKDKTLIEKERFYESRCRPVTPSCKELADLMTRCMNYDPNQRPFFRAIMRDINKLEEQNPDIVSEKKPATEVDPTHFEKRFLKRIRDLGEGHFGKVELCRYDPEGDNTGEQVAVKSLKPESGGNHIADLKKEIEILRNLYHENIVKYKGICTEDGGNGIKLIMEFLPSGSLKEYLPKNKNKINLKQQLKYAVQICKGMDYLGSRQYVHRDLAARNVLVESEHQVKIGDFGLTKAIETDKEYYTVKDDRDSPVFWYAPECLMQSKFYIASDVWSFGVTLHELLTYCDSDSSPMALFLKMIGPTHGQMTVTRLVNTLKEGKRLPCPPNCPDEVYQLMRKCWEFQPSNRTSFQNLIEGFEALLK

binding result (JAK-1): no binding
B1: chimeric α/γ/γ receptor chain (receptor, UniProt P01589 22-240, looked up)
chain: ELCDDDPPEIPHATFKAMAYKEGTMLNCECKRGFRRIKSGSLYMLCTGNSSHSSWDNQCQCTSSATRNTTKQVTPQPEEQKERKTTEMQSPMQPVDQASLPGHCREPPPWENEATERIYHFVVGQMVYYQCVQGYRALHRGPAESVCKMTHGKTRWTQPQLICTGEMETSQFPGEEKPQASPEGRPESETSCLVTTTDFQIQTEMAATMETSIFTTEYQVVISVGSMGLIISLLCVYFWLERTMPRIPTLKNLEDLVTEYHGNFSAWSGVSKGLAESLQPDYSERLCLVSEIPPKGGALGEGPGASPCNQHSPYWAPPCYTLKPET

binding result [1]: binds
B2: JAK-3 protein (enzyme)
chain: MAPPSEETPLIPQRSCSLLSTEAGALHVLLPARAPGPPQRLSFSFGDHLAEDLCVQAAKASGILPVYHSLFALATEDLSCWFPPSHIFSVEDASTQVLLYRIRFYFPNWFGLEKCHRFGLRKDLASAILDLPVLEHLFAQHRSDLVSGRLPVGLSLKEQGECLSLAVLDLARMAREQAQRPGELLKTVSYKACLPPSLRDLIQGLSFVTRRAIRRTVRRALPRVAACQADRHSLMAKYIMDLERLDPAGAAETFHVGLPGALGGHDGLGLLRVAGDGGIAWTQGEQEVLQPFCDFPEIVDISIKQAPRVGPAGEHRLVTVTRTDNQILEAEFPGLPEALSFVALVDGYFRLTTDSQHFFCKEVAPPRLLEEVAEQCHGPITLDFAINKLKTGGSRPGSYVLRRSPQDFDSFLLTVCVQNPLGPDYKGCLIRRSPTGTFLLVGLSRPHSSLRELLATCWDGGLHVDGVAVTLTSCCIPRPKEKSNLIVVQRGHSPPTSSLVQPQSQYQLSQMTFHKIPADSLEWHENLGHGSFTKIYRGCRHEVVDGEARKTEVLLKVMDAKHKNCMESFLEAASLMSQVSYRHLVLLHGVCMAGDSTMVQEFVHLGAIDMYLRKRGHLVPASWKLQVVKQLAYALNYLEDKGLPHGNVSARKVLLAREGADGSPPFIKLSDPGVSPAVLSLEMLTDRIPWVAPECLREAQTLSLEADKWGFGATVWEVFSGVTMPISALDPAKKLQFYEDRQQLPAPKWTELALLIQQCMAYEPVQRPSFRAVIRDLNSLISSDYELLSDPTPGALAPRDGLWNGAQLYACQDPTIFEERHLKYISQLGKGNFGSVELCRYDPLAHNTGALVAVKQLQHSGPDQQRDFQREIQILKALHSDFIVKYRGVSYGPGRPELRLVMEYLPSGCLRDFLQRHRARLDASRLLLYSSQICKGMEYLGSRRCVHRDLAARNILVESEAHVKIADFGLAKLLPLDKDYYVVREPGQSPIFWYAPESLSDNIFSRQSDVWSFGVVLYELFTYCDKSCSPSAEFLRMMGCERDVPALCRLLELLEEGQRLPAPPACPAEVHELMKLCWAPSPQDRPSFSALGPQLDMLWSGSRGCETHAFTAHPEGKHHSLSFS
notes: Intracellular kinase of 1124 residues; Tested as the endogenous protein in lysates of HUT-78, YT, NK and NK3.3 cells, or as recombinant protein in lysates of transfected COS-7 cells; also called L-JAK; human JAK-3
